Laboratory results as given in paper PMC4859480.

Biological target: HHV-6B U14 N-terminal domain (U14-NTD), residues 2-458 (human herpesvirus 6B (HHV-6B) strain HST)
Assay: crystal structure

Substance: HHV-6B U14 N-terminal domain (U14-NTD), residues 2-458 (domain or fragment)
- stoichiometry N: 2
